From patent US20130157929A1, “GLUCAGON ANALOGUES” (ZEALAND PHARMA A/S, published 2013)
Blank lines part the entries; values can stand above or below the binder they belong to. Starred links: 1 amine or outer side, 2 acyl side, 3 side chain; linkers in the order of their positions; H or OH if unused. Non-standard residues stand in square brackets, D forms with d. Groups on a side chain read outwards from the residue. *: point of attachment. γGlu = O=C(O)[C@H](CCC(=O)[*:2])N[*:1]; Palmitoyl = CCCCCCCCCCCCCCCC(=O)*; hPhe = N[C@@H](CCc1ccccc1)C(=O)O; Aib = CC(C)(N)C(=O)O

Tests used:
[1] = biological target: human glucagon-like peptide 1 receptor (GLP-1R) (human, UniProt P43220); assay: cell-based or functional assay
[2] = biological target: human glucagon receptor (glucagon-R) (human, UniProt P47871); assay: cell-based or functional assay

- EC50 (nM) GLP-1R, cAMP formation [1]: 3.5 nM
- EC50 (nM) GluR, cAMP formation [2]: 8.9 nM
B1: Compound 14 (peptide)
peptide: H-H[Aib][hPhe]GTFTSDYSKYLDSK([γGlu-Palmitoyl])AAHDFVEWLLSA-NH2
SMILES: CCCCCCCCCCCCCCCC(=O)N[C@@H](CCC(=O)NCCCC[C@H](NC(=O)[C@H](CO)NC(=O)[C@H](CC(=O)O)NC(=O)[C@H](CC(C)C)NC(=O)[C@H](Cc1ccc(O)cc1)NC(=O)[C@H](CCCCN)NC(=O)[C@H](CO)NC(=O)[C@H](Cc1ccc(O)cc1)NC(=O)[C@H](CC(=O)O)NC(=O)[C@H](CO)NC(=O)[C@@H](NC(=O)[C@H](Cc1ccccc1)NC(=O)[C@@H](NC(=O)CNC(=O)[C@H](CCc1ccccc1)NC(=O)C(C)(C)NC(=O)[C@@H](N)Cc1c[nH]cn1)[C@@H](C)O)[C@@H](C)O)C(=O)N[C@@H](C)C(=O)N[C@@H](C)C(=O)N[C@@H](Cc1c[nH]cn1)C(=O)N[C@@H](CC(=O)O)C(=O)N[C@@H](Cc1ccccc1)C(=O)N[C@H](C(=O)N[C@@H](CCC(=O)O)C(=O)N[C@@H](Cc1c[nH]c2ccccc12)C(=O)N[C@@H](CC(C)C)C(=O)N[C@@H](CC(C)C)C(=O)N[C@@H](CO)C(=O)N[C@@H](C)C(N)=O)C(C)C)C(=O)O

- EC50 (nM) GLP-1R, cAMP formation [1]: 5.8 nM
- EC50 (nM) GluR, cAMP formation [2]: 43 nM
B2: Compound 15 (peptide)
peptide: H-H[Aib]WGTFTSDYSKYLDSK([γGlu-Palmitoyl])AAHDFVEWLLSA-NH2
SMILES: CCCCCCCCCCCCCCCC(=O)N[C@@H](CCC(=O)NCCCC[C@H](NC(=O)[C@H](CO)NC(=O)[C@H](CC(=O)O)NC(=O)[C@H](CC(C)C)NC(=O)[C@H](Cc1ccc(O)cc1)NC(=O)[C@H](CCCCN)NC(=O)[C@H](CO)NC(=O)[C@H](Cc1ccc(O)cc1)NC(=O)[C@H](CC(=O)O)NC(=O)[C@H](CO)NC(=O)[C@@H](NC(=O)[C@H](Cc1ccccc1)NC(=O)[C@@H](NC(=O)CNC(=O)[C@H](Cc1c[nH]c2ccccc12)NC(=O)C(C)(C)NC(=O)[C@@H](N)Cc1c[nH]cn1)[C@@H](C)O)[C@@H](C)O)C(=O)N[C@@H](C)C(=O)N[C@@H](C)C(=O)N[C@@H](Cc1c[nH]cn1)C(=O)N[C@@H](CC(=O)O)C(=O)N[C@@H](Cc1ccccc1)C(=O)N[C@H](C(=O)N[C@@H](CCC(=O)O)C(=O)N[C@@H](Cc1c[nH]c2ccccc12)C(=O)N[C@@H](CC(C)C)C(=O)N[C@@H](CC(C)C)C(=O)N[C@@H](CO)C(=O)N[C@@H](C)C(N)=O)C(C)C)C(=O)O

- EC50 (nM) GLP-1R, cAMP formation [1]: 0.28 nM
- EC50 (nM) GluR, cAMP formation [2]: 11 nM
B3: Compound 13 (peptide)
peptide: H-H[Aib]LGTFTSDYSKYLDSK([γGlu-Palmitoyl])AAHDFVEWLLSA-NH2
SMILES: CCCCCCCCCCCCCCCC(=O)N[C@@H](CCC(=O)NCCCC[C@H](NC(=O)[C@H](CO)NC(=O)[C@H](CC(=O)O)NC(=O)[C@H](CC(C)C)NC(=O)[C@H](Cc1ccc(O)cc1)NC(=O)[C@H](CCCCN)NC(=O)[C@H](CO)NC(=O)[C@H](Cc1ccc(O)cc1)NC(=O)[C@H](CC(=O)O)NC(=O)[C@H](CO)NC(=O)[C@@H](NC(=O)[C@H](Cc1ccccc1)NC(=O)[C@@H](NC(=O)CNC(=O)[C@H](CC(C)C)NC(=O)C(C)(C)NC(=O)[C@@H](N)Cc1c[nH]cn1)[C@@H](C)O)[C@@H](C)O)C(=O)N[C@@H](C)C(=O)N[C@@H](C)C(=O)N[C@@H](Cc1c[nH]cn1)C(=O)N[C@@H](CC(=O)O)C(=O)N[C@@H](Cc1ccccc1)C(=O)N[C@H](C(=O)N[C@@H](CCC(=O)O)C(=O)N[C@@H](Cc1c[nH]c2ccccc12)C(=O)N[C@@H](CC(C)C)C(=O)N[C@@H](CC(C)C)C(=O)N[C@@H](CO)C(=O)N[C@@H](C)C(N)=O)C(C)C)C(=O)O
